Data as given in patent US20220380734A1, “SYSTEMS AND METHODS FOR LUNG CELL EXPANSION AND DIFFERENTIATION” (DUKE UNIVERSITY, priority 2019, published 2022).

Columns and labels:
AEC2s [1] = assay: AEC2/AEC1 marker immunostaining of mouse organoids (maintenance and differentiation)
Experimental: Serum free medium contained 10 μM SB431542 (Abcam, Cambridge, UK), 3 μM CHIR99021 (Tocris, Bristol, UK), 1 μM BIRB796 (Tocris, Bristol, UK), 5 μg/ml Heparin (Sigma-Aldrich, St. Louis, Mo.), 50 ng/ml human EGF (Gibco), 10 ng/ml mouse FGF10 (R&D systems. Minneapolis, Minn.), 10 μM Y27632 (Selleckchem, Houston, Tex.), Insulin-Transferrin-Selenium (Thermo, Waltham, Mass.), 1% Glutamax (Thermo, Waltham, Mass.), 2% B27 (Thermo, Waltham, Mass.), 1% N2 (Thermo, Waltham, Mass.), 15 mM HEPES (Thermo, Waltham, Mass.), 1.25 mM N-acetylcysteine (Sigma-Aldrich, St. Louis, Mo.) and 1% Anti-Anti (Thermo, Waltham, Mass.) in Advanced DMEM/F12 (Thermo, Waltham, Mass.). For Alveo-Expansion medium, 10 ng/ml mouse IL-1b (BioLegend, San Diego, Calif.), 10 ng/ml mouse TNFa (BioLegend, San Diego, Calif.) were added into serum free medium. For Alveo-Maintenance medium, 10 ng/ml mouse Noggin (Peprotech, Rocky Hill, N.J.) and 1 μM DMH-1 (Tocris, Bristol, UK.) were added into Alveo-Expansion medium. Alveo-Differentiation medium contained ITS, Glutamax, 5 μg/ml Heparin, 5 ng/ml human EGF, 1 μg/ml mouse FGF10, 10% fetal bovine serum and 1% Anti-Anti in Advanced DMEM/F12.
For differentiation, mouse alveolospheres were cultured in AMM medium for 10 days were switched to AT2-differentiation medium followed by culture for an additional 7 days, except where stated otherwise. […]

human alveolospheres = assay: Human alveolosphere culture with human IL-1β; assay type: cell-based; conditions: three donors, hIL-1β removed at day 7, cultured additional 7-15 days
Experimental: For human alveolosphere culture, HTII-280^+ human AT2s (1-3×10^3) were resuspended in scrum free medium and mixed with an equal amount of Matrigel and plated in 6 well plates. For detailed mouse and human serum-free, feeder-free (SFFF) media composition, see Table 1 and Table 2.
The impact of human IL-1β was also tested in human alveolosphere culture. Human IL-1β was removed from medium containing human alveolospheres from three individual donors at day 7 and cultured for an additional 7-15 days (FIG. 7A).

AEC2s [2] = assay: Feeder-free (no fibroblasts) mouse AEC2 organoid culture in serum free medium: CFE and organoid size; assay type: cell-based

Q: “IL6: interleukin-6, 20 ng/mL supplement of serum-free differentiation medium” was tested. Which “expression of AEC1 markers including AGER” value (AEC2s [1]; mouse AEC2s, 10 days maintenance medium, then serum-free differentiation medium + IL6 20 ng/mL for 10 days) did it give?
A: The value was “strong expression”.

Q: How did the “organoid numbers and the size (growth rate)” value (human alveolospheres) turn out when “Human IL-1β: human interleukin-1β tested in human alveolosphere culture” was run?
A: Its value is “significantly enhanced”.

B1: BMP4: BMP4 ligand (protein, UniProt P12644 293-408, looked up)
Bone morphogenetic protein 4: SPKHHSQRARKKNKNCRRHSLYVDFSDVGWNDWIVAPPGYQAFYCHGDCPFPLADHLNSTNHAIVQTLVNSVNSSIPKACCVPTELSAISMLYLDEYDKVVLKNYQEMVVEGCGCR
Q: For B1, which “complete differentiation of AEC2 to AEC1 cells” value (AEC2s [1]; organoids treated with BMP4 ligand) is on record?
A: The value was “not observed”.

B2: IL1β: mouse interleukin-1β, cytokine added to serum free medium (protein, UniProt P10749 118-269, looked up)
Interleukin-1 beta: VPIRQLHYRLRDEQQKSLVLSDPYELKALHLNGQNINQQVIFSMSFVQGEPSNDKIPVALGLKGKNLYLSCVMKDGTPTLQLESVDPKQYPKKKMEKRFVFNKIEVKSKVEFESAEFPNWYISTSQAEHKPVFLGNNSGQDIIDFTMESVSS
Q: Which results are given for B2?
A: CFE (AEC2s [2]; IL1β removed from culture media on day-3, n=2): 19.85%; CFE (AEC2s [2]; IL1β removed from culture media on day-5, n=3, average±SEM): 20.35%±0.30%; CFE (AEC2s [2]; IL1β removed from culture media on day-7, n=3, average±SEM): 19.33%±0.84%; CFE (AEC2s [2]; continuous IL1β supplementation, n=3, average±SEM): 20.91%±1.61%
